Patent US20190169249A1 (SHATTUCK LABS, published 2019)
Values belong to the binder of their own block, whether it stands above or below them.

Columns and labels:
[1] = target: T1, CSF1R-Fc (commercially available, single-sided control protein) (UniProt P07333 20-512, limits assumed); test: SPR, BioRad ProteOn XPR 360
T1 construct: Recombinant control protein; not shown: Fc part of the bought protein; not described
Protocol: The binding affinity of the different domains of the hCSF1R-Fc-CD40L chimeric protein was measured by the surface plasmon resonance (SPR) using the BioRad ProteOn XPR 360 system. Specifically, the affinity of the chimeric protein for human CSF1 and CD40 was determined and compared to recombinant control proteins, and the results are shown in the Table below: […]

CD40-His = target: T2, CD40-His (human, UniProt P25942 21-193); test: bio-layer interferometry (Octet); ligand column: hCD40-his
T2 construct: Octet (biolayer interferometry) reagent; also called recombinant human CD40; not shown: His tag
T2 sequence (P25942 21-193 limits assumed): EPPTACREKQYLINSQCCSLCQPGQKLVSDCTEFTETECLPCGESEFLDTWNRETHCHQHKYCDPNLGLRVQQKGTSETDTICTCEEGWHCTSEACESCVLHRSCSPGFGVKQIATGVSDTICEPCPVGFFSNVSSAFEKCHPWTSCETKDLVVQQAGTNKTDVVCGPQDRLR

[2] = target: T3, murine CD40 overexpressed on CHO-K1 cells (CHOK1/CD40) (murine, UniProt P27512 20-289); test: flow cytometry on CHOK1/CD40 cells; CHOK1/CD40 cells, flow cytometry
T3 construct: whole, on cells; also called mCD40
T3 sequence (looked up): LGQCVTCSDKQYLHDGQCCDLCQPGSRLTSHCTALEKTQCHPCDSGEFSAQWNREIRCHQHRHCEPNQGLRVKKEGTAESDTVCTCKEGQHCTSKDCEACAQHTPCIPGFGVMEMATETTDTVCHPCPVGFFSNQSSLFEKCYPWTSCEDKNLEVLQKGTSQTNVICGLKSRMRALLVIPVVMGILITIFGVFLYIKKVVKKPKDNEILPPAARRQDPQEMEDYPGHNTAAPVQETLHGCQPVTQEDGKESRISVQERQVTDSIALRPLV
Protocol: For cell binding assays, immortalized cell lines were engineered to stably express CD40 (CHOK1/CD40). Increasing concentrations of the murine CSF1R-Fc-CD40L chimeric protein were incubated with the over-expressing (CHOK1/CD40) cell line for 2 hours. Cells were collected, washed, and stained with antibodies for the detection of chimeric protein binding by flow cytometry.
As a negative control, there was no detectable binding to the parental (non-CD40 expressing) CHOK1 cell line.

T1 sequence (P07333 20-512 limits assumed): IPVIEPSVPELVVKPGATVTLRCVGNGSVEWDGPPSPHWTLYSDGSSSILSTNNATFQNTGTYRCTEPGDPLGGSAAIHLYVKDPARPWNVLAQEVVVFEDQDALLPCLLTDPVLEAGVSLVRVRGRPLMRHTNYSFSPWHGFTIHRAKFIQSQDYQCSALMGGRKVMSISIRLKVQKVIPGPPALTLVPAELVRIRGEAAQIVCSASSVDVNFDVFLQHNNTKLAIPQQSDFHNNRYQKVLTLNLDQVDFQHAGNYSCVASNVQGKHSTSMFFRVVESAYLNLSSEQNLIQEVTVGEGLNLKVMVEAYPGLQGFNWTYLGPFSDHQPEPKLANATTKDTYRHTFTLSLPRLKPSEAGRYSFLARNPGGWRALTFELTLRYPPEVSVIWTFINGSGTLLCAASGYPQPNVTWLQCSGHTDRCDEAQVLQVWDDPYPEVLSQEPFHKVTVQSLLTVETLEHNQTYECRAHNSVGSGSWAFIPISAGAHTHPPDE

Kd [1]: 0.275 nM | koff [1]: 0.000335 s⁻¹ | kon [1]: 1.22e+06 M⁻¹ s⁻¹
B1: recombinant human CSF1 protein (ligand, UniProt P09603 33-190, looked up)
chain: EEVSEYCSHMIGSGHLQSLQRLIDSQMETSCQITFEFVDQEQLKDPVCYLKKAFLLVQDIMEDTMRFRDNTPNAIAIVQLQELSLRLKSCFTKDYEEHDKACVRTFYETPLQLLEKVKNVFNETKNLLDKDWNIFSKNCNNSFAECSSQDVVTKPDCN
notes: the construct is not described

Kd (CD40-His): 2.42 nM
B2: CD40L-Fc (commercially available, single-sided control protein) (Fc fusion, UniProt P29965 113-261, looked up)
chain: MQKGDQNPQIAAHVISEASSKTTSVLQWAEKGYYTMSNNLVTLENGKQLTVKRQGLYYIYAQVTFCSNREASSQAPFIASLCLKSPGRFERILLRAANTHSSAKPCGQQSIHLGGVFELQPGASVFVNVTDPSQVSHGTGFTSFGLLKL
notes: Recombinant control protein; not shown: Fc part of the bought protein

EC50 [2]: 91.1 nM
B3: murine CSF1R-Fc-CD40L chimeric protein (Fc fusion)
chain (part 1 of 2): APVIEPSGPELVVEPGETVTLRCVSNGSVEWDGPISPYWTLDPESPGSTLTTRNATFKNTGTYRCTELEDPMAGSTTIHLYVKDPAHSWNLLAQEVTVVEGQEAVLPCLITDPALKDSVSLMREGGRQVLRKTVYFFSPWRGFIIRKAKVLDSNTYVCKTMVNGRESTSTGIWLKVNRVHPEPPQIKLEPSKLVRIRGEAAQIVCSATNAEVGFNVILKRGDTKLEIPLNSDFQDNYYKKVRALSLNAVDFQDAGIYSCVASNDVGTRTATMNFQVVESAYLNLTSEQSLLQEVSVGDSLILTVHADAYPSIQHYNWTYLGPFFEDQRKLEFITQRAIYRYTFKLFLNRVKASEAGQYFLMAQNKAGWNNLTFELTLRYPPEVSVTWMPVNGSDVLFCDVSGYPQPSVTWMECRGHTDRCDEAQALQVWNDTHPEVLSQKPFDKVIIQSQLPIGTLKHNMTYFCKTHNSVGNSSQYFRAVSLGQSKQLPDESLFTP
chain (part 2 of 2): HRRLDKVEEEVNLHEDFVFIKKLKRCNKGEGSLSLLNCEEMRRQFEDLVKDITLNKEEKKENSFEMQRGDEDPQIAAHVVSEANSNAASVLQWAKKGYYTMKSNLVMLENGKQLTVKREGLYYVYTQVTFCSNREPSSQRPFIVGLWLKPSSGSERILLKAANTHSSSQLCEQQSVHLGGVFELQAGASVFVNVTEASQVIHRVGFSSFGLLKL
notes: 'constructed as described above in the Detailed Description and in U.S. 62/464,002'; also called mCSF1R-Fc-CD40L; mCD115-Fc-CD40L; not shown: Fc linker
